Experiment [1] deals with human recombinant plasminogen activator inhibitor‐1 (stable PAI‐1 variant 14‐1B) (human) (UniProt P05121).
For experiment [2], the target named is endogenous plasma PAI‐1 (human (endogenous in plasma)) (UniProt P05121).
The target of experiment [3] is murine PAI‐1 (murine) (UniProt P22777).
The target in experiment [4] is human antithrombin‐III (human) (UniProt P01008).
Experiment [5] has as its target recombinant human plasminogen activator inhibitor‐2 (human) (UniProt P05120).
Experiment [6] addresses PN‐1 (human) (UniProt P07093).
Experiment [7] addresses human α2‐antiplasmin (human) (UniProt P08697).
The target in experiment [8] is human recombinant plasminogen activator inhibitor‐1 (stable PAI‐1 variant 14‐1B) (human) (UniProt P05121). Put plainly: SPR; anti‐PAI‐1 monoclonal antibody (Mab‐1) immobilised on a CM5 Biacore chip, PAI‐1 captured on it, uPA‐S195A variants applied from 25 nM to 48.8 pM; global fit to a 1:1 binding model; repeated three times.
The target is the same in experiment [9]. This is another data set of the same source.
The target is the same in experiment [10]. The source holds these as a separate data set.
Experiment [11] shares this target. This is another data set of the same source.

The values below come from paper PMC4876229.

pKd: −log10 of the molar value.

For the substance “PAItrap (uPA‐S195A‐G37bR‐R217L‐C122A‐N145Q) (domain or fragment)”, the IC50, chromogenic assay: recovery of uPA activity (S‐2444 hydrolysis) from inhibition by PAI‐1 (15 nM PAI‐1, 15 nM human uPA); blocks PAI‐1 + uPA in experiment [1] was found to be 10 nM. Also, the time to 50% clot lysis in platelet‐free plasma without exogenous PAI‐1: 100 pM tPA, 20 or 200 nM PAItrap (96 min without PAItrap); blocks PAI‐1 + tPA in experiment [2] turned out to be 68 min. The same substance returned an IC50, chromogenic assay similar to that used for human PAI‐1; inhibition of murine PAI‐1 in experiment [3] of 14 nM. In addition, the IC50, chromogenic assay: remaining thrombin activity (Gly‐Arg‐p‐nitroanilide) with 30 nM antithrombin‐III and 30 nM human α‐thrombin, 37°C; blocks antithrombin‐III + α‐thrombin in [4] was 40000 nM. Further, the IC50, chromogenic assay: recovery of uPA activity (S2444) from inhibition by 15 nM PAI‐2, 15 nM uPA, 37°C; blocks PAI‐2 + uPA in experiment [5] worked out at 14000 nM. Further, the IC50, chromogenic assay: recovery of uPA activity (S2444) from inhibition by 15 nM PN‐1, 15 nM uPA, 37°C; blocks PN‐1 + uPA in [6] was found to be 16000 nM. Further, the IC50, chromogenic assay: plasmin activity (Gly‐Arg‐p‐nitroanilide) with 15 nM α2‐antiplasmin and 15 nM human plasmin; blocks α2‐antiplasmin + plasmin in [7] was more than 50000 nM. Moreover, in experiment [8], the pKd was 9.82, the off-rate (koff) is 0.000627 s⁻¹ and the kon turned out to be 4.11e+06 M⁻¹ s⁻¹. Also, the IC50 of blocking PAI‐1 inhibition on tPA (Fig. S1); blocks PAI‐1 + tPA in [9] was found to be 14 nM. For the same substance, the clot lysis time in human platelet‐poor plasma: 2.4 nM tPA, 0.9 nM PAI‐1, 6.5 nM PAItrap; blocks PAI‐1 + tPA in experiment [10] worked out at 6 min.
Turning to “uPA‐SPD S195A‐C122A‐N145Q (domain or fragment)”, the IC50, chromogenic assay: recovery of uPA activity (S‐2444 hydrolysis) from inhibition by PAI‐1 (15 nM PAI‐1, 15 nM human uPA); blocks PAI‐1 + uPA in [1] is 109 nM. Moreover, the clot lysis time in human platelet‐poor plasma: 2.4 nM tPA, 0.9 nM PAI‐1, 6.5 nM uPA‐S195A; blocks PAI‐1 + tPA in [11] was found to be 39 min. In [8], the pKd was 8.80, the koff was found to be 0.00121 s⁻¹ and the kon turned out to be 776000 M⁻¹ s⁻¹.
For the substance “uPA‐SPD S195A‐C122A‐N145Q‐A96E (domain or fragment)”, the IC50, chromogenic assay: recovery of uPA activity (S‐2444 hydrolysis) from inhibition by PAI‐1 (15 nM PAI‐1, 15 nM human uPA); blocks PAI‐1 + uPA in [1] came to 22 nM.
Take “uPA‐SPD S195A‐C122A‐N145Q‐G37bR (domain or fragment)”: in [1], the IC50, chromogenic assay: recovery of uPA activity (S‐2444 hydrolysis) from inhibition by PAI‐1 (15 nM PAI‐1, 15 nM human uPA); blocks PAI‐1 + uPA was 25 nM. Further, in [8], the pKd is 9.49, the koff is 0.000698 s⁻¹ and the kon was found to be 2.3e+06 M⁻¹ s⁻¹.
For “uPA‐SPD S195A‐C122A‐N145Q‐G37bR‐R217L‐A96E (domain or fragment)”, the IC50, chromogenic assay: recovery of uPA activity (S‐2444 hydrolysis) from inhibition by PAI‐1 (15 nM PAI‐1, 15 nM human uPA); blocks PAI‐1 + uPA in experiment [1] stood at 30 nM.
As to “uPA‐SPD S195A‐C122A‐N145Q‐G37bR‐Y60bK (domain or fragment)”, the IC50, chromogenic assay: recovery of uPA activity (S‐2444 hydrolysis) from inhibition by PAI‐1 (15 nM PAI‐1, 15 nM human uPA); blocks PAI‐1 + uPA in experiment [1] is 90 nM. Also, in [8], the negative-log Kd (pKd) is 9.08, the koff was found to be 0.00114 s⁻¹ and the kon worked out at 2.35e+06 M⁻¹ s⁻¹.
“uPA‐SPD S195A‐C122A‐N145Q‐G37bR‐Y60bK‐R217L (domain or fragment)”: in experiment [1], the IC50, chromogenic assay: recovery of uPA activity (S‐2444 hydrolysis) from inhibition by PAI‐1 (15 nM PAI‐1, 15 nM human uPA); blocks PAI‐1 + uPA amounted to 26 nM.
Turning to “uPA‐SPD S195A‐C122A‐N145Q‐Q192K (domain or fragment)”, in experiment [1], the IC50, chromogenic assay: recovery of uPA activity (S‐2444 hydrolysis) from inhibition by PAI‐1 (15 nM PAI‐1, 15 nM human uPA); blocks PAI‐1 + uPA was 3000 nM.
On to “uPA‐SPD S195A‐C122A‐N145Q‐R217L (domain or fragment)”, for which, in experiment [1], the IC50, chromogenic assay: recovery of uPA activity (S‐2444 hydrolysis) from inhibition by PAI‐1 (15 nM PAI‐1, 15 nM human uPA); blocks PAI‐1 + uPA amounted to 48 nM. In [8], the pKd is 9.20, the dissociation rate constant (koff) was found to be 0.00084 s⁻¹ and the association rate constant (kon) was determined as 1.33e+06 M⁻¹ s⁻¹.
Turning to “uPA‐SPD S195A‐C122A‐N145Q‐Y149R (domain or fragment)”, the IC50, chromogenic assay: recovery of uPA activity (S‐2444 hydrolysis) from inhibition by PAI‐1 (15 nM PAI‐1, 15 nM human uPA); blocks PAI‐1 + uPA in experiment [1] was more than 3000 nM.
For the substance “uPA‐SPD S195A‐C122A‐N145Q‐Y151F (domain or fragment)”, the IC50, chromogenic assay: recovery of uPA activity (S‐2444 hydrolysis) from inhibition by PAI‐1 (15 nM PAI‐1, 15 nM human uPA); blocks PAI‐1 + uPA in experiment [1] is 1000 nM.
